Source: paper PMC5036643
Read-outs that look alike come from different tables or passages of the source.

Columns and labels:
Test in all cases: single-molecule bead assay
[1] = biological target: Microtubules of porcine brain tubulin, tetramethylrhodamine-labelled, taxol-stabilised (porcine) (UniProt P02550)
[2] = biological target: Microtubules of porcine brain tubulin, tetramethylrhodamine-labelled, taxol-stabilised (porcine) (UniProt P02550); remark: listed apart in the source
[3] = biological target: Microtubules of porcine brain tubulin, tetramethylrhodamine-labelled, taxol-stabilised (porcine) (UniProt P02550); remark: listed apart in the source
[4] = biological target: Microtubules of porcine brain tubulin, tetramethylrhodamine-labelled, taxol-stabilised (porcine) (UniProt P02550); remark: listed apart in the source
[5] = biological target: Microtubules of porcine brain tubulin, tetramethylrhodamine-labelled, taxol-stabilised (porcine) (UniProt P02550); remark: listed apart in the source
[6] = biological target: Microtubules of porcine brain tubulin, tetramethylrhodamine-labelled, taxol-stabilised (porcine) (UniProt P02550); remark: listed apart in the source
[7] = biological target: Microtubules of porcine brain tubulin, tetramethylrhodamine-labelled, taxol-stabilised (porcine) (UniProt P02550); remark: listed apart in the source
[8] = biological target: Microtubules of porcine brain tubulin, tetramethylrhodamine-labelled, taxol-stabilised (porcine) (UniProt P02550); remark: listed apart in the source

average duration (time between attachment and detachment) [1]: 1.03 s | average duration (time between attachment and detachment) [2]: 1.19 s | average duration (time between attachment and detachment) [3]: 0.69 s | average duration (time between attachment and detachment) [4]: 1.01 s | average duration (time between attachment and detachment) [5]: 1.11 s | average duration (time between attachment and detachment) [6]: 0.8 s | average duration (time between attachment and detachment) [7]: 1.53 s | average duration (time between attachment and detachment) [8]: 0.92 s
Substance: Conventional kinesin (native, from bovine brain) (complex)
